Consider two substances from patent US20240092922A1.

For test [1], the target named is chimeric (mouse and human) 4-1BB (c4-1BB) on transfected CHO cells (chimeric (mouse and human)). The test is described as follows: flow cytometry on CHO-c4-1BB cells, negative control panel, detection with anti-mouse-IgG-Fc-FITC (1:100). Background: Flow cytometry measures light scatter and fluorescence of single cells or particles in a stream.
For test [2], the target named is human 4-1BB (h4-1BB) on transiently transfected CHO cells (human) (UniProt Q07011). The test can be described thus: flow cytometry on CHO cells transiently transfected with human 4-1BB, detection with anti-mouse-IgG-Fc-FITC (1:100), SSC-H against FITC; negative control panel.
Test [3] addresses monkey (Rhesus macaque) 4-1BB (r4-1BB) on transfected CHO cells (monkey (Rhesus macaque)). The test can be described thus: flow cytometry on CHO-r4-1BB (T) cells, negative control panel, detection with anti-mouse-IgG-Fc-PE (1:500).
The target of test [4] is mouse 4-1BB (m4-1BB) on transfected CHO cells (mouse) (UniProt P20334). The test can be described thus: flow cytometry on CHO-m4-1BB cells, negative control panel, detection with anti-mouse-IgG-Fc-FITC (1:100).
Test [5] concerns the target Histidine-tagged human 4-1BB protein (h4-1BB-His) (human) (UniProt Q07011). The test is described as follows: SPR (Biacore T200), antibody on Protein A chip, h4-1BB-His injected.

Sequence of urelumab (antibody) (VH): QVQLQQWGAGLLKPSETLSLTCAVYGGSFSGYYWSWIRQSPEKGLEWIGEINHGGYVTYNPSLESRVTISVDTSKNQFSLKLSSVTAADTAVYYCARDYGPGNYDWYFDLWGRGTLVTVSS
Sequence of urelumab (antibody) (VL): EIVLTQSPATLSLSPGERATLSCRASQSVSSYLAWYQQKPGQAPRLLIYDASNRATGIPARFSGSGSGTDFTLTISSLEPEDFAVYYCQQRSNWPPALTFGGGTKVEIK

In the case of NC, the percent of cells in the FITC-positive gate in test [1] is 1.07%; in test [2] it was 0.598%; in test [4] it was 0.983%. For the same substance, the percent of cells in the PE-positive gate in test [3] was found to be 0.429%.
For orientation: Kd means the constant that tells how readily two partners part at equilibrium. One may read the koff as the first-order rate constant of dissociation. A word on the kon: it is a measure of how fast the partners come together. Regarding urelumab (antibody), in test [5], the Kd stood at 44.3 nM, the koff is 0.00302 s⁻¹ and the kon is 68100 M⁻¹ s⁻¹.
